Values joined by “and” are separate entries in the source; they are usually repeats but may differ in a detail not shown here. Equal entries are not always repeated. Where two headings read alike, the source gives them in different places.

In PMC8239462 (The Journal of Biological Chemistry, 2021) one finds Kd data, which are given here for one molecule.

What all share (assay): SPR
A general note: In SPR one partner is held on a chip, and binding of the other changes the refractive index at the surface.

For experiment [1], the target named is T1, LRP1 cluster II (CR.3–10), recombinant, secreted from Sf9 cells (human, UniProt Q07954 852-1182).
T1 sequence: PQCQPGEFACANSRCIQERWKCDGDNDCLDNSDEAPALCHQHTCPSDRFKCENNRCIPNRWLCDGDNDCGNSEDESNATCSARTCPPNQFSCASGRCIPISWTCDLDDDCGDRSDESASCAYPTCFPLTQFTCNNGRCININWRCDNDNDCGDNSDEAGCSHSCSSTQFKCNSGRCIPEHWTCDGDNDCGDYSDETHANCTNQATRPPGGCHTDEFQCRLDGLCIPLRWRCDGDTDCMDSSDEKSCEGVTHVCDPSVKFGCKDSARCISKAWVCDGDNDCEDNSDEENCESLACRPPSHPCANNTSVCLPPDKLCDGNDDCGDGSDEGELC

Experiment [2] has as its target LRP1 cluster IV (CR.21–31), recombinant, secreted from Sf9 cells (human, UniProt Q07954 3332-3778).
Experiment [3] has as its target T1, LRP1 cluster II (CR.3–10), recombinant, …. The source holds these as a separate data set.
The target is the same in experiment [4]. The source holds these as a separate data set.

LRP1 cluster IV (CR.21–31), recombinant, secreted from Sf9 cells, sequence (Q07954 3332-3778): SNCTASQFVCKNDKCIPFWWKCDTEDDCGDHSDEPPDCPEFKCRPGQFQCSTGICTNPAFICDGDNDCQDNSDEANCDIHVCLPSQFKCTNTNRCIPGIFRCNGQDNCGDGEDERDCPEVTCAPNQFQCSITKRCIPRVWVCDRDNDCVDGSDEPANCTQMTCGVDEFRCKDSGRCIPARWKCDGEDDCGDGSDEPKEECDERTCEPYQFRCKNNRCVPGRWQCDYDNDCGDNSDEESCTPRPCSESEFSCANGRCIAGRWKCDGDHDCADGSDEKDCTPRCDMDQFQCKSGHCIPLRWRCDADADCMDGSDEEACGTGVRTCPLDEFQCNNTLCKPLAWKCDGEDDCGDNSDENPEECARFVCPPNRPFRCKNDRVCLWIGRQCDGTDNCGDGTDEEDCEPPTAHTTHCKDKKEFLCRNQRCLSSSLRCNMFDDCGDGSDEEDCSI

B1: RAP (commercial; R&D, 4296-LR) (natural protein, human)
chain: YSREKNQPKPSPKRESGEEFRMEKLNQLWEKAQRLHLPPVRLAELHADLKIQERDELAWKKLKLDGLDEDGEKEARLIRNLNVILAKYGLDGKKDARQVTSNSLSGTQEDGLDDPRLEKLWHKAKTSGKFSGEELDKLWREFLHHKEKVHEYNVLLETLSRTEEIHENVISPSDLSDIKGSVLHSRHTELKEKLRSINQGLDRLRRVSHQGYSTEAEFEEPRVIDLWDLAQSANLTDKELEAFREELKHFEAKIEKHNHYQKQLEIAHEKLRHAESVGDGERVSRSREKHALLEGRTKELGYTVKKHLQDLSGRISRARHNEL
As a reminder, the Kd is a measure of binding affinity in units of concentration. Take B1: the Kd in experiment [1] was 1.97 nM and 2.4 nM; in experiment [2], 1.4 nM; in experiment [3], 2.66 nM; in experiment [4], 1.67 nM and 1.2 nM.
